Measurements reported in the nanobody polyreactivity screen of Harvey et al. (2022).

Experiment: yeast display, Sf9 membrane polyspecificity reagent, FACS + sequencing; frameworks hold sequencing errors
How it was run: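 A nanobody's polyreactivity label depends on the gate it was sorted from. Yeast display cells were stained with 10% biotinylated, detergent-solubilized Sf9 membrane reagent for 1 hour at 4 °C, enriched on streptavidin microbeads and sorted by FACS. The low and high (top ~1%) gates were set on anti-HA fluorescence for expression and streptavidin fluorescence for reagent binding.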

Sequence | polyreactivity (PSR sort gate)
QVQLVDSGGGLVQAGGSLRLSCAASGRIFPYYDMGWYRQAPGKERELVAAITWNGGSTYYADSVKGRFTISRDNAKNTVYLQMNSLKPEDTAVYYWAVEPYYYGEDYWGQGTQVTVSS | low polyreactivity
QVQLVESGGGLVQAGGSLRLSCAASGRNFHRYAMGWYRQAPGKERELVATIRSGGGTYYADSVKGRFTISRDNAKNTVYLQMNSLKPEDTAVYDCNAQSSYSYFSGYDYWGQGTQVTVSS | low polyreactivity
QVQLVESGGGLVQAGGSLRLSCAASGSTFAYNAMGWYRQAPGKERELVAAISSSGTSTYYADSVKGRFTISRDYAKNTVYLQMNSLKTEDTAVYYCAARSAILKSGYLMDYWGQGTQVTVSS | low polyreactivity
QVQLVESGGGLVQAGGSLRLSCAASGLNFWLNAMGWYRQAPGKERELVAAISRGGSTNYADSVKGRFTNSRDNAKNTVYLQMNSLKPEDTAVYYCAAGSRRAACYDYSYPYGYWGQGSQVTVSS | high polyreactivity
QVQLVESGGGLVQAGGSLRLSCAASGFTFYRNAMGWYRQAPGKEWELVAGITRSGGSTYYADSVKGRFTISRDNAKNTVYLQMNSLKPEDTAVYYCNKAYGGDKYSGTYDYWGQGTQVTVSS | high polyreactivity
QVQHEESRGGLVQAGGSLRLSCAASVRTFSVNAMGRYRQAPGKEREFVAVISSNGGSTYYADSVKGRFTISLDNAKNTVYLQMNSLKPEDTAVYYCNARYWRGWGGRVSKYGYWGHGTQVTVSS | high polyreactivity
QVQLVESGGGLVQAGGSLRLSCAASGSIFRSYAMGWYRQAPGKERELVAGITSSGGSTYADSVKGRFTISRDNAKNTVYLQMNSLKPEDTAVYFCAKPGFEWLLTRLFSVSEYDYWGQGTQVTVSS | low polyreactivity
QVQLVESGGGLVQAGGTLRLSCAATGSIFPGNAMGWYRPAPGKERELVAAISGRGGSTYYADSVKGRFTISRDNAKNTVYVQMNSLKPEDTAVYYCAAAPVYRPRDSYDKHRHYYWGQCTQVTVSS | high polyreactivity
QVQLVESGGGLVQAGGSLRLSCAASGLTFGGNAMGWYRQAPGKERELVAAISWSDDTTDYADSVKGRFTISRDNGKYTVYLQMNSLKPEDTAVYYCAARLPFEHVDYWGQGTQVTVSS | low polyreactivity
QVQLVESGGGLVQAGGSLRLSCAASGSIQVYYAMGWYRQAPGKERELVAAISSGGSTNYADSVKGRFTISRDNAKNTVYLQMNSLKPEDTAVYYCAKESGWVGAIHYDYWGQGTQVTVSS | low polyreactivity
QVQLVESGGGLVQAGGSLRLSCAASGSTFHNYAMGWYRQAPGKERELVAGISVRGGGTYYADSVKGRFTISRDNAKNNVYLQMNSLKPEDTAVYYCAKRSRYYYRYDYWGQGSQVTVSS | high polyreactivity
QVQLVESGGGLVQAGGRLRLSCAASGGTFHKYAMGWYRQAPGKERELVAGISRRTGTTYYADSVKGRFTISRDNAKNTVYLQMNSLKPEDTAVYYCATDWGRYSRLSKADPSDYWGQGTHVTVSS | high polyreactivity
QVQLVESGGGLVQAGGSLRLSCAASGNIFVFYVMGWYRQAPGKERELVASISSTGNTYYADSVKGRFTISRDNAKNTVYLQMNSLKPEDTAVYYCAAEYYSIRYGPHSIEVYGMDYWGQGTQVTVSS | low polyreactivity
QVQLVESGGGLVQAGGSLRISCAASGRILGKYAMGWYRQAPGKESELVAAIRLRGGSTYYADSVKGRFTISRDNEKNSVYLQMNSLKPEDTAVYYCAARYWDRSQAYNDWGQGTQVTVSS | high polyreactivity
QVQLVESGGGLVQAGGSLRLSCDASGRIFRYYAMGWYRQAPGKERELVAAISSDGSTDYADSVKGRFTISRDNAKNTVYLQMNSLKPEDTAVYYCAASVVSYGHDYWGQGTQVTVSS | low polyreactivity
QVQLVESGGGLVQAGGSLRLSCAASGSTFCGYAMGWSRQAPGKEREFVATISISGGSTYYADSVKGRFTISRDNAKNTVYLQMNSLKPEDTAVYYCNADYYFSWGSIEDYWGQGTQVTVSS | low polyreactivity
QVQLVESGGGLVQAGGSLRLSCASSGRIFKYYSMGCYRQSPGKVRELVASISWSGGSTYYADSVKGRFTISRDNAKNTVYLQMNSLKPEDTAVYYCAAYVTYLRYRSNIAYYGYDYWGQGTQVTVSS | high polyreactivity
QVQLVESGGGLDQAGGSLRLSCAASGSLFARNTMGGYRQAPGKERELVATITARGGSTYADSVKGRFTISRDNAKNTVYLQMNSLKPEDTAVYYCNADYGLFSRATFYGYDYWGQGTQVTVSS | low polyreactivity
EEELVESGGGLVQAGGSLRLSCSASGSTFLVYSMGWYRQAPGKERELVAVITNSTVRTYYADSVKGRFTISRDNAKNTVYLQMDRLKPEDTAVYYCNADKEFAVLGQGMDYWGQGTQVTVSS | low polyreactivity
QVQLVDSGGGLVQAGGSLRLSCAASGSTFSSYAMGWYRQAPGKERELVDVITRGTSTNYADSVKGRFTISRDNAKNTVYLQMNSLKPEDTAVYYCNSRRGSRRFGYCGQGTQVTVSS | high polyreactivity
QVQLVESGGGLVQEGGSLRLSCAASGSIFGYYAMGWYRQAPGKERELVAAISRSGGSTYYADSVKGRFTISRDNAKNTVSLQMNSLKPEDTAFYYCAADDYPYGNYYWGKGTQVTVSS | high polyreactivity
QVQLVESGGGLVQAGGSLRLSCAASGFIFRRYVMGWYRQAPGKERELVAAISYGGGSTYYADSVKGRFTISRDNAKNTVYLQMNSLKPEDTAVYYCAARVYYDAYDYWGQGTQVTVSS | high polyreactivity

Sequence | polyreactivity (PSR sort gate)
QVQLVESGGGLVQAGGSLRLSCAASGYTFANNAMGWYRQAPGKERELVAVITWSGDSTYYADSVKGRFTISRDNAKNTVYLQMNSQKAEDTAVYYCAREFSDGLSGKFDYWGQGTQLTVSS | low polyreactivity
QVQLVESGGGLVQAGGSLRLSCAASGRIFLGYTMGWYIQAPGKERELVAAISYTGGSTYYADSVKGRFTISRDNAKNSVYLQMNSLKPEDTAVYYCAAGTRFSYYWGQGTQLTVSS | high polyreactivity
QVQLVESGGGLVQAGGSLRLSCAASGRIICFYPMGWYRQAPGKEREFVAAIRWSGGTTYYADSVKGRFTISRDNAKNNVYLQMNSLKPEDTAVYYCAAGRAVGHSLYSRGYDYWGQGTQVTVSS | low polyreactivity
QVQLVESGGRLVQAGGSLRLSCAASGSIFLAYAMGWYRQAPGKEREFVAAISFSDGSTYYADSVKGRFTISRDNAKNTVYLQMNSLKPEDTAVYYCNKGASPDDYDYWGQGTQVTVSS | low polyreactivity
QVQLVESGGVLVQAGGSLRLSCAASGRTFLYNAMGWYRQAPGKERELVAAISSRGARTYYADSVKGRFTISRDNAKKTVYLQMNSLKPEDTAVYYCAASYTTAYYRYDYWGQGTQVTVSS | high polyreactivity
QVQLVDSGGGLVQAGGSLRLSCAASGSTFLAYAMGSSRQAPGKQTELVAAITWNSCSSTFYADSVKGRFTISRDNAKNSVYLQMNSLKPEDTAVYYCNADVPSPAYYGDGTPYREDNYWGQGTQVTVSS | low polyreactivity
QVQLVESGGGLVQAGGSLRLSCAASGRILAYYAMGWYRQAPGKERELVAAITSGGRTYYADSVKGRFTISRDNAKNTVYLQMNSLKPEDTAVYYCNAVYGYWYGSWGQGTQVTVSS | high polyreactivity
QVQLVESGGGLVQAGGSLRLSCAASGIIFPGKAMGWYRQAPGKERELVAAISSGGNTKYADSVKGRFTISRDNAKNTGYLQMNSLNPEDTAVYYCAAAARARNPSYGRNYWGQGTQVTVSS | high polyreactivity
QVHLVESGGGLVQAGGSLRLSCAASGSNFARNAMGWYRHAPGKERELVAAITYSGGRTYYADSVKGRFTISRDNAKNTVYLQMNSLKPEDTAVFYCAVKSFSGHGDYWGQGTEVTVSS | low polyreactivity
QVQLVESGGGLVQAGGSLSLSCAASGSTFFSYAMGWYRQAPGKEREFVAAITYSSGRTYYADSVKGRFTISRDNAKNTVYLQMNSLKPEDTAVYYCATTGFVWGRGYDYWGQGTQVTVSS | high polyreactivity
QVQLVESGGGLVQAGGSLRLSCAASGFTLANYAMGWYRQAPGKERELVAAIDYSGGGTYYADSVKGRFTISRDNAKNTVYFQMNSLKPEDTAVYYCAARRWSYYSAKYDYWGQGTQVTVSS | low polyreactivity
QVQLVESGGGLVQAGGSLRVSCAASGFTFRGYAMGWYRQAPGKERELVAAIRRGVITNYADSVKGRFTISRDNAKNTVYLQMHSLKPEDTAVYYCAAGNITPYRYYHGYYQSIYDYWGQGTQVTVSS | low polyreactivity
QVQLVESGGGLVQAGGSLRLSCAASGRTFDIYAMGWYRPAPGKERELVAAISSGGSTYYADSVKGRFTISRDNAKNTVYLQMNSLKPEDTAVYYCAVRWYDQVSRRGIGYYWGQGTQVTVSS | low polyreactivity
QVQLEESGGGLVQAGGSLRLSCAASGNIFRDYAMGWYRQAPGKERELVAAISWSGGSTYYADSVKGRFTISRDNAKNTVYLQMNSLKPEDTAVYYCAARKPYSYNYWGQGTQVTVSS | high polyreactivity
QVQLVESGGGLVQAGGSLRLSCAASGNTFTRNTMGWYRQAPGKERELVASISLSGASTYYADSVKGRFTISRDNAKNTVYLQMNSLKPEDTAVYYCAKRRSYGYYRAYNYWGQGTQVTVSS | high polyreactivity
QVQLVESRGGVVQAGGSLRLSSAASGTFVYAMGWYRQAPGKERELVAAISYSGGSTYYADSVKGRFTISRDNAKNTVYLQMNSLKPEDTAVYYCAARTTLSYGYDYWGQGTQVTVSS | high polyreactivity
QVQLVESGGGLVQAGGSLRLSCAASGRTFDAYTMGWYRQAPGKEMELVAAITFSGGNTYYADSVKGRFIISRDNAKNTVYLQMNSLKPEDTAVYYCAARHWIYSTDYSTYYEYDSWGQGTQVTVSS | low polyreactivity
QVQLVESGGGLVQAGGSLRLSCSASGSIFFKYAMGWYRQAPGKERELVASITSRGGTTYYADSVKGRFTISRDNAKNTVYLQMNSLKPEDTAVYYCAALRRSSFGYWGQGTQVTVSS | high polyreactivity
QVQLVESGGGLVQAGGSLRLSCAASGFTFTRYAMGWSRQAPGKETELVAAISSGSRTYYADSVKGRFTISRDNAKNTVYLQMNSLKPEDTAVYYCAAPVYTYYGHYDSWGQGTQVTVSS | high polyreactivity
QVQLVESGGGLVQAGGSLRLRCAASGRTFGGNAMGWYRQAPGKERELVAAISFSGGSTYYADSVKGRFTISRDNAKNTVYLQMNSLKPEDTAVYYCAARYYWSVYADQGDYWGQGTQVTVSS | low polyreactivity
QVQLVESGGGLVQAGGSLRLSCAASGIIFRGNAMGWYRQAPGKERELVAAMSKSGGRTYYADSVKGRFTISRDNAKNTVYLQMNSLKPEDTAVYYCAARRSTSYPAGNDYWGQGTQVTVSS | high polyreactivity
